Source: publication PMC3317646, “Interaction of Chandipura Virus N and P Proteins: Identification of Two Mutually Exclusive Domains of N Involved in Interaction with P” (PLoS ONE, 2012)

How the values were obtained:
Conditions in all cases: both partners purified
[1] = biological target: T1, N(1/180–265/422), bacterially expressed (Chandipura virus, UniProt P11211 1-422, N(1/180–265/422)); test: pull-down; His-tag co-elution after 1% DOC treatment of the N variants and dialysis against the binding buffer in presence of His-P (N variants monomeric); Ni-NTA agarose, eluted with 250 mM imidazole
T1 construct: also called middle deletant; source: E. coli BL21(DE3) or BL21(DE3)pLysS, purified (anion exchange, MonoQ 5/50 GL)
T1 sequence: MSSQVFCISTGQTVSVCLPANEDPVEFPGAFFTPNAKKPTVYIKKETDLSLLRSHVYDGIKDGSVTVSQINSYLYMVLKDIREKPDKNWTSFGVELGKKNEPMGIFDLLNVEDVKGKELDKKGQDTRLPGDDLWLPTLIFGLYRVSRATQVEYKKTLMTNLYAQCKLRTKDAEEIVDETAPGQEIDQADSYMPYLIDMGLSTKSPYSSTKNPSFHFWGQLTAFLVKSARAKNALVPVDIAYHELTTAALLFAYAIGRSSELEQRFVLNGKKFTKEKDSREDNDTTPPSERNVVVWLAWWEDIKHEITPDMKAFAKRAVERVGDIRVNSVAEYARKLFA

[2] = biological target: T2, N(1–320), bacterially expressed (Chandipura virus, UniProt P11211 1-320); test: as above
T2 construct: Chandipura virus nucleocapsid protein N, residues 1-320; also called N(1–320)^0 (monomer after DOC treatment); source: E. coli BL21(DE3) or BL21(DE3)pLysS, purified (anion exchange, MonoQ 5/50 GL)
T2 sequence: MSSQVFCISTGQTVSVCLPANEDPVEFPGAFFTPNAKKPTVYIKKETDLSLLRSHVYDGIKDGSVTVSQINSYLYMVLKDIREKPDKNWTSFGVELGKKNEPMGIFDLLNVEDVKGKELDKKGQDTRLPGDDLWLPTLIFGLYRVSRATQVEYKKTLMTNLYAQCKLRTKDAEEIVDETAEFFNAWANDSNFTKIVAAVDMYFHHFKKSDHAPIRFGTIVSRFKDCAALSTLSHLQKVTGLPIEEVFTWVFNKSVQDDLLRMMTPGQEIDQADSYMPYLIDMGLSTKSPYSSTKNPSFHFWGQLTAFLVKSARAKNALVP

[3] = biological target: T3, N(1–390), bacterially expressed (Chandipura virus, UniProt P11211 1-390); test: pull-down; His-tag co-elution: N proteins not treated with DOC incubated with 6×His-P in 50 mM Tris-Cl pH 8, 100 mM NaCl, 0.1% Triton X-100, 10 mM imidazole, 30 min at 4°C; bound to Ni-NTA agarose, eluted with 250 mM imidazole
T3 construct: Chandipura virus nucleocapsid protein N, residues 1-390; source: E. coli BL21(DE3) or BL21(DE3)pLysS, purified (anion exchange, MonoQ 5/50 GL)
T3 sequence: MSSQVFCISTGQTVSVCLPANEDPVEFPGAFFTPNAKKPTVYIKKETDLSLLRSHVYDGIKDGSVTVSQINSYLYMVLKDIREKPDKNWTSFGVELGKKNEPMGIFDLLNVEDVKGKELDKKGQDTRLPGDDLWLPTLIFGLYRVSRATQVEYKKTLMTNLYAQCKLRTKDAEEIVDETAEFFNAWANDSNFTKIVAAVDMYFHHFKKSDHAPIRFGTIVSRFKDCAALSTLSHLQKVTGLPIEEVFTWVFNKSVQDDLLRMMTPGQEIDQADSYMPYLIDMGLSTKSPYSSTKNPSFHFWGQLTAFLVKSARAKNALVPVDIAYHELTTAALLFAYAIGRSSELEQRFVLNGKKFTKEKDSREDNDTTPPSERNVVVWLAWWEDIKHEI

[4] = biological target: T4, Chandipura virus nucleocapsid protein (N), wild-type, untagged, bacterially expressed (Chandipura virus, UniProt P11211 1-422); test: as above
T4 construct: Chandipura virus nucleocapsid protein N, full-length untagged (pET3a-NC); Oligomeric (nucleocapsid-like rings) as purified; monomeric after 1% DOC; also called CHPV N; wild-type N
T4 sequence: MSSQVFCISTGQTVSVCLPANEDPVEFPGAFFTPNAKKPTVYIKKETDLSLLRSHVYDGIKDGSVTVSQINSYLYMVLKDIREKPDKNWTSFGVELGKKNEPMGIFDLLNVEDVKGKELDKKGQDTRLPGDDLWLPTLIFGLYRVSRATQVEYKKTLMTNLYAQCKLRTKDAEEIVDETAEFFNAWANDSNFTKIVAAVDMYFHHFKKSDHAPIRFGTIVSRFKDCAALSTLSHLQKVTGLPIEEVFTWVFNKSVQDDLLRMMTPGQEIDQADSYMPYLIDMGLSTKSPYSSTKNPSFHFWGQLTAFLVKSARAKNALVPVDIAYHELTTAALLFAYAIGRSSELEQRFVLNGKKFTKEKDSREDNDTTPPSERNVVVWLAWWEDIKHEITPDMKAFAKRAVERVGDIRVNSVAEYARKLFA

[5] = biological target: T5, N(22–422), bacterially expressed (Chandipura virus, UniProt P11211 22-422); test: as above
T5 construct: source: E. coli BL21(DE3) or BL21(DE3)pLysS, purified (anion exchange, MonoQ 5/50 GL)
T5 sequence: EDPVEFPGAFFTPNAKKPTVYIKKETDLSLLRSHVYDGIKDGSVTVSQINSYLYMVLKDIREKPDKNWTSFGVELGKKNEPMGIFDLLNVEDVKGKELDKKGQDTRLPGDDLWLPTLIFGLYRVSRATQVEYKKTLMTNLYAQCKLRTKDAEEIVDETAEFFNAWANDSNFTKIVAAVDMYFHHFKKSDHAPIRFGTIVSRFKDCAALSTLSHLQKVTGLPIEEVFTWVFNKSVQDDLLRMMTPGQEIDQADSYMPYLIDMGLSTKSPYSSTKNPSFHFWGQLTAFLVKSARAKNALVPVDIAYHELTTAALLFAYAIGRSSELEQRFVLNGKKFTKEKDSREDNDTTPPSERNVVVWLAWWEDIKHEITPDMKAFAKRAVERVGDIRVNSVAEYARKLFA

[6] = biological target: T6, N(48–422), bacterially expressed (Chandipura virus, UniProt P11211 48-422); test: as above
T6 construct: source: E. coli BL21(DE3) or BL21(DE3)pLysS, purified (anion exchange, MonoQ 5/50 GL)
T6 sequence: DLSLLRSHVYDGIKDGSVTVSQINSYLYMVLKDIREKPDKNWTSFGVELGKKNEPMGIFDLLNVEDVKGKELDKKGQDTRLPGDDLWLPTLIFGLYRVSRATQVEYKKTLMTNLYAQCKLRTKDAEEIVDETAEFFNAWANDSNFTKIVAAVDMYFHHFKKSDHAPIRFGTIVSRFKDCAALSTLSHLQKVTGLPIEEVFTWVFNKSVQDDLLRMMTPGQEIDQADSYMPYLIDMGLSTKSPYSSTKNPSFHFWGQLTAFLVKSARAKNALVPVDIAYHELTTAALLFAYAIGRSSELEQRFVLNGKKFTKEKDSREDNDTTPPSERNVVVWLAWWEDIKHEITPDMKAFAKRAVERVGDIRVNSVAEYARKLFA

Measured: binding result

B1: N-terminal six histidine tagged P protein of Chandipura virus (His-P) (natural protein)
chain: MEDSQLYQALKNYPKLQDTLDSIENLEDDTKSEPSECGSPTERGIPSYYLAEELDECEEEDSEEDDDNLPTEIPDPPTVDMLEAIMEDEIDDTAYQVHFEAKQTWKPVIETGGNERGKFTLSVPQNLSALQLLQWETGIHALAERLGGCRLLQISTRGTRDGIEFTVRETPCVSPASDPIPSTSRSSSIASNVSTRQTESPGSKSNTSLGIPEAPANLIDMGAIDKEFILAAISPSDPPYKNTLRNLFGSGDSFEQYNQTGIYSLKELVIAGLKRKGIYNRIRIRCHLEPQFN
notes: Chandipura virus phosphoprotein P, full length (pET20b-P); pET20b usually adds a C-terminal His tag (surmise); also called 6×His-P; pET20b-P; source: bacterially expressed, purified (Ni-NTA agarose); not shown: His6, N-terminal, kept
binds: [1] | [2] | [3] | [4] | [5] | [6]
